From patent US20200199241A1 (Chugai, published 2020) come the findings set out here.

Positions count from the first letter of the chain named.

For orientation: Kd means the equilibrium constant for the complex coming apart.

The experiment has as its target T1, soluble human FcRn complexed with β2-microglobulin (human, UniProt P61769 21-119, limits assumed).
T1 construct: also called hFcRn
As to the kind of experiment: Biacore SPR, pH 7.0. (In general: In SPR one partner is held on a chip, and binding of the other changes the refractive index at the surface.)
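Also: test antibodies captured on a Protein L chip with human FcRn flowed over as analyte, KD obtained as the ratio of dissociation to association rate constants.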

T1 sequence (chain, as listed by the source limits assumed, chain 1 of 2): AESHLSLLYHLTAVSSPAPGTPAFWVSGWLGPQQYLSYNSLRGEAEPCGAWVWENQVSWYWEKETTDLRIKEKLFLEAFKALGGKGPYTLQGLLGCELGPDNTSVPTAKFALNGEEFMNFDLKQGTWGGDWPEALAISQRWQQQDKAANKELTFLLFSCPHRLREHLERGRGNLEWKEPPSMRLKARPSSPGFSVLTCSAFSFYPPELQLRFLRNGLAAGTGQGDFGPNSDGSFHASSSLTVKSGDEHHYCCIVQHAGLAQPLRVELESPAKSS
T1 sequence (P61769 21-119 limits assumed, chain 2 of 2): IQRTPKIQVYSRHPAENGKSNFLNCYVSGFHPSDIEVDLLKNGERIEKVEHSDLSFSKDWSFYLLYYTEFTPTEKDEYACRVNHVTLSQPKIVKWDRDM

B1: IgG1-F794 (antibody)
heavy: QVQLQESGPGLVKPSETLSLTCAVSGHSISHDHAWSWVRQPPGEGLEWIGFISYSGITNYNPSLQGRVTISRDNSKNTLYLQMNSLRAEDTAVYYCARSLARTTAMDYWGEGTLVTVSSASTKGPSVFPLAPSSKSTSGGTAALGCLVKDYFPEPVTVSWNSGALTSGVHTFPAVLQSSGLYSLSSVVTVPSSSLGTQTYICNVNHKPSNTKVDKKVEPKSCDKTHTCPPCPAPELLGGPSVFLFPPKPKDTLYISRTPEVTCVVVDVSHEDPEVKFNWYVDGVEVHNAKTKPREEQYNSTYRVVSVLTVLHQDWLKGKEYKCKVSNKALPAPIEKTISKAKGQPREPQVYTLPPSRDELTKNQVSLTCLVKGFYPSDIAVEWESNGQPENNYKTTPPVLDSDGSFFLYSKLTVDKSRWQQGNVFSCSVMHEALHYHYTQKSLSLSP
light: not shown
notes: EU numbering; copies: 2 + 2
Turning to B1, binding was put at a Kd of 410 nM.

B2: IgG1-F822 (antibody)
heavy: B1 heavy with P240D, T252Y, W315Y, K317N
light: not shown
notes: EU numbering; copies: 2 + 2
For the molecule B2, the Kd came to 1100 nM.

B3: IgG1-F850 (antibody)
heavy: B1 heavy with D282E, K317N
light: not shown
notes: EU numbering; copies: 2 + 2
Consider B3, for which the Kd came out at 290 nM.

B4: IgG1-F834 (antibody)
heavy: B1 heavy with P240D, T252V, R257F, K317N
light: not shown
notes: EU numbering; copies: 2 + 2
The molecule B4 had a Kd of 810 nM. This Kd lies about 2.8-fold higher than the previous one.

B5: IgG1-F837 (antibody)
heavy: B1 heavy with P240D, T252V, R257I, K317N
light: not shown
notes: EU numbering; copies: 2 + 2
B5 gave a Kd of 560 nM. The Kd values of the last two molecules are within 1.5-fold of each other.

B6: IgG1-F823 (antibody)
heavy: B1 heavy with P240D, T252Y, W315F, K317N
light: not shown
notes: EU numbering; copies: 2 + 2
Molecule B6 returned a Kd of 1100 nM.

B7: IgG1-F799 (antibody)
heavy: B1 heavy with K317R
light: not shown
notes: EU numbering; copies: 2 + 2
The molecule B7 registered a Kd of 410 nM.

B8: IgG1-F844 (antibody)
heavy: B1 heavy with P240D, T252V, R257S, K317N
light: not shown
notes: EU numbering; copies: 2 + 2
Consider B8, for which binding was put at a Kd of 1300 nM. This Kd is about 3.2-fold higher than that of the molecule before.

B9: IgG1-F831 (antibody)
heavy: B1 heavy with P240D, T252V, R257A, K317N
light: not shown
notes: EU numbering; copies: 2 + 2
In turn, B9 came in with a Kd of 1600 nM.

B10: IgG1-F810 (antibody)
heavy: B1 heavy with K317N, A380V
light: not shown
notes: EU numbering; copies: 2 + 2
B10 showed a Kd of 220 nM.

B11: IgG1-F815 (antibody)
heavy: B1 heavy with K317N, T439R
light: not shown
notes: EU numbering; copies: 2 + 2
Turning to B11, binding was characterised by a dissociation constant (Kd) of 550 nM.

B12: IgG1-F853 (antibody)
heavy: B1 heavy with D282H, K317N
light: not shown
notes: EU numbering; copies: 2 + 2
B12 came in with a Kd of 320 nM.

B13: IgG1-F833 (antibody)
heavy: B1 heavy with P240D, T252V, R257E, K317N
light: not shown
notes: EU numbering; copies: 2 + 2
B13 displayed a Kd of 800 nM. This Kd is about 2.5-fold higher than that of the molecule before.

B14: IgG1-F852 (antibody)
heavy: B1 heavy with D282G, K317N
light: not shown
notes: EU numbering; copies: 2 + 2
Regarding B14, binding was put at a Kd of 330 nM.

B15: IgG1-F821 (antibody)
heavy: B1 heavy with L237R, S241K, K317N
light: not shown
notes: copies: 2 + 2
Molecule B15 had a Kd of 310 nM.

B16: IgG1-F795 (antibody)
heavy: B1 heavy with K317L
light: not shown
notes: EU numbering; copies: 2 + 2
Regarding B16, the affinity, expressed as Kd, was 310 nM.

B17: IgG1-F805 (antibody)
heavy: B1 heavy with K317N, N327A
light: not shown
notes: EU numbering; copies: 2 + 2
Molecule B17 registered a Kd of 300 nM.

B18: IgG1-F843 (antibody)
heavy: B1 heavy with P240D, T252V, R257Q, K317N
light: not shown
notes: EU numbering; copies: 2 + 2
In the case of B18, the affinity, expressed as Kd, was 660 nM.

B19: IgG1-F868 (antibody)
heavy: B1 heavy with G238A, S241D, N288E, T309Q, Q313A, K317N
light: not shown
notes: EU numbering; copies: 2 + 2
B19 came in with a Kd of 20 nM. Compared with the last molecule, the Kd is about 33-fold lower.

B20: IgG1-F836 (antibody)
heavy: B1 heavy with P240D, T252V, R257H, K317N
light: not shown
notes: EU numbering; copies: 2 + 2
For the molecule B20, binding was put at a Kd of 500 nM.

B21: IgG1-F840 (antibody)
heavy: B1 heavy with P240D, T252V, R257M, K317N
light: not shown
notes: EU numbering; copies: 2 + 2
B21 displayed a Kd of 420 nM. This Kd and that of the molecule before are within 1.5-fold of each other.

B22: IgG1-F861 (antibody)
heavy: B1 heavy with D282R, K317N
light: not shown
notes: EU numbering; copies: 2 + 2
B22: binding was put at a Kd of 320 nM.

B23: IgG1-F816 (antibody)
heavy: B1 heavy with P240D, T252V, T309P, K317N
light: not shown
notes: EU numbering; copies: 2 + 2
Take B23: the Kd is 360 nM.

B24: IgG1-F811 (antibody)
heavy: B1 heavy with K317N, E382S
light: not shown
notes: EU numbering; copies: 2 + 2
Turning to B24, the Kd came to 490 nM. The Kd values of the last two molecules are within 1.5-fold of each other.

B25: IgG1-F863 (antibody)
heavy: B1 heavy with D282T, K317N
light: not shown
notes: EU numbering; copies: 2 + 2
On to B25, for which the Kd was 270 nM.

B26: IgG1-F798 (antibody)
heavy: B1 heavy with K317Q
light: not shown
notes: EU numbering; copies: 2 + 2
B26 registered a Kd of 350 nM.

B27: IgG1-F870 (antibody)
heavy: B1 heavy with L237K, S241K, T309Q, Q313A, K317N
light: not shown
notes: EU numbering; copies: 2 + 2
Turning to B27, binding was characterised by a dissociation constant (Kd) of 73 nM.

B28: IgG1-F862 (antibody)
heavy: B1 heavy with D282S, K317N
light: not shown
notes: EU numbering; copies: 2 + 2
The molecule B28 yielded a Kd of 300 nM.

B29: IgG1-F839 (antibody)
heavy: B1 heavy with P240D, T252V, R257L, K317N
light: not shown
notes: EU numbering; copies: 2 + 2
Molecule B29 registered a Kd of 340 nM.

B30: IgG1-F841 (antibody)
heavy: B1 heavy with P240D, T252V, R257N, K317N
light: not shown
notes: EU numbering; copies: 2 + 2
Take B30: binding was characterised by a dissociation constant (Kd) of 1100 nM.

B31: IgG1-F807 (antibody)
heavy: B1 heavy with K317N, N391A
light: not shown
notes: EU numbering; copies: 2 + 2
On to B31, for which binding was characterised by a dissociation constant (Kd) of 320 nM. This Kd is about 3.4-fold lower than that of the molecule before.

B32: IgG1-F814 (antibody)
heavy: B1 heavy with K317N, Y438I
light: not shown
notes: EU numbering; copies: 2 + 2
Consider B32, for which the Kd was 120 nM.

B33: IgG1-F813 (antibody)
heavy: B1 heavy with K317N, S426E
light: not shown
notes: EU numbering; copies: 2 + 2
In the case of B33, binding was characterised by a dissociation constant (Kd) of 280 nM.

B34: IgG1-F867 (antibody)
heavy: B1 heavy with K317N, N386A, N391A
light: not shown
notes: EU numbering; copies: 2 + 2
As to B34, the Kd turned out to be 280 nM.

B35: IgG1-F806 (antibody)
heavy: B1 heavy with K317N, N386A
light: not shown
notes: EU numbering; copies: 2 + 2
Molecule B35 had a Kd of 310 nM.

B36: IgG1-F808 (antibody)
heavy: B1 heavy with K317N, N391A, N392A
light: not shown
notes: EU numbering; copies: 2 + 2
As to B36, the affinity, expressed as Kd, was 320 nM.

B37: IgG1-F801 (antibody)
heavy: B1 heavy with K317T
light: not shown
notes: EU numbering; copies: 2 + 2
B37 gave a Kd of 440 nM.

B38: IgG1-F828 (antibody)
heavy: B1 heavy with P240D, T252V, I255V, K317N
light: not shown
notes: EU numbering; copies: 2 + 2
B38 displayed a Kd of 2500 nM.

B39: IgG1-F855 (antibody)
heavy: B1 heavy with D282K, K317N
light: not shown
notes: EU numbering; copies: 2 + 2
Molecule B39 showed a Kd of 320 nM.

B40: IgG1-F860 (antibody)
heavy: B1 heavy with D282Q, K317N
light: not shown
notes: EU numbering; copies: 2 + 2
In the case of B40, the affinity, expressed as Kd, was 330 nM.

B41: IgG1-F812 (antibody)
heavy: B1 heavy with K317N, E384V
light: not shown
notes: EU numbering; copies: 2 + 2
As to B41, binding was characterised by a dissociation constant (Kd) of 270 nM.

B42: IgG1-F848 (antibody)
heavy: B1 heavy with P240D, T252V, R257Y, K317N
light: not shown
notes: EU numbering; copies: 2 + 2
In the case of B42, binding was characterised by a dissociation constant (Kd) of 830 nM.

B43: IgG1-F800 (antibody)
heavy: B1 heavy with K317S
light: not shown
notes: EU numbering; copies: 2 + 2
The molecule B43 showed a Kd of 380 nM.

B44: IgG1-F838 (antibody)
heavy: B1 heavy with P240D, T252V, R257K, K317N
light: not shown
notes: EU numbering; copies: 2 + 2
Turning to B44, binding was put at a Kd of 430 nM. This Kd and that of the molecule before are within 1.5-fold of each other.

B45: IgG1-F820 (antibody)
heavy: B1 heavy with L237K, S241K, K317N
light: not shown
notes: EU numbering; copies: 2 + 2
Consider B45, for which the Kd stood at 340 nM.

B46: IgG1-F819 (antibody)
heavy: B1 heavy with P240D, N288E, K317N
light: not shown
notes: EU numbering; copies: 2 + 2
B46: the affinity, expressed as Kd, was 140 nM.

B47: IgG1-F847 (antibody)
heavy: B1 heavy with P240D, T252V, R257W, K317N
light: not shown
notes: EU numbering; copies: 2 + 2
B47 came in with a Kd of 340 nM.

B48: IgG1-F817 (antibody)
heavy: B1 heavy with P240D, T252V, T309Q, Q313A, K317N
light: not shown
notes: EU numbering; copies: 2 + 2
For B48, the equilibrium dissociation constant (Kd) was found to be 98 nM.

B49: IgG1-F858 (antibody)
heavy: B1 heavy with D282N, K317N
light: not shown
notes: EU numbering; copies: 2 + 2
As to B49, the Kd amounted to 320 nM.

B50: IgG1-F832 (antibody)
heavy: B1 heavy with P240D, T252V, R257D, K317N
light: not shown
notes: EU numbering; copies: 2 + 2
For the molecule B50, the Kd was determined as 2600 nM.

B51: IgG1-F809 (antibody)
heavy: B1 heavy with S256T, T258S, K317N
light: not shown
notes: EU numbering; copies: 2 + 2
B51 gave a Kd of 220 nM.

B52: IgG1-F796 (antibody)
heavy: B1 heavy with K317M
light: not shown
notes: EU numbering; copies: 2 + 2
In turn, B52 registered a Kd of 340 nM.

B53: IgG1-F804 (antibody)
heavy: B1 heavy with K317Y
light: not shown
notes: EU numbering; copies: 2 + 2
For the molecule B53, the Kd stood at 400 nM.

B54: IgG1-F803 (antibody)
heavy: B1 heavy with K317W
light: not shown
notes: EU numbering; copies: 2 + 2
Regarding B54, the Kd came to 360 nM.

B55: IgG1-F849 (antibody)
heavy: B1 heavy with D282A, K317N
light: not shown
notes: EU numbering; copies: 2 + 2
Turning to B55, binding was characterised by a dissociation constant (Kd) of 330 nM. This Kd and that of the molecule before are within 1.5-fold of each other.
